# Reference: patent US12564623B2, “Methods and compositions for treating cancer” (The University of Chicago, priority 2017, dated 2026)
# B1: neutrophil elastase (protein, listed as Homo sapiens)
# chain: MTLGRRLACLFLACVLPALLLGGTALASEIVGGRRARPHAWPFMVSLQLRGGHFCGATLIAPNFVMSAAHCVANVNVRAVRVVLGAHNLSRREPTRQVFAVQRIFENGYDPVNLLNDIVILQLNGSATINANVQVAQLPAQGRRLGNGVQCLAMGWGLLGRNRGIASVLQELNVTVVTSLCRRSNVCTLVRGRQAGVCFGDSGSPLVCNGLIHGIASFVRGGCASGLYPDAFAPVAQFVNWIDSIIQRSEDNPCPHPRDPDPASRTH
# notes: purified native ELANE
# Assays:
# [1] = system: MDA-MB-231, A549, MEL888, M1, 4195, E0771, LLC1, B16F10 tumors; test: Tumor growth in xenograft, PDX and syngeneic models; assay type: in vivo, mice; conditions: 11.6 μg intratumorally once/day for 5 days
# Description: MDA-MB-231, A549, or MEL888 cells (xenograft model) were injected into athymic nude mice; M1 or 4195 tumors (TNBC PDX models) were propagated in SCID mice; and E0771, LLC1, or B16F10 cells (syngeneic models) were injected into C57BL/6 mice. Once tumors reached ˜100 mm^3, ELANE (11.6 μg), or PMSF-ELANE (11.6 μg) were delivered intratumorally once/day for 5 days. n=8-15 mice/group. Tumor volume was assessed by calipers. Kaplan-Meier curve was plotted and the logrank test (Mentel-Cox method) was used for mouse survival analysis. Day 0 refers to the first treatment day. End point of survival is defined as tumor volume >1000 mm^3. (FIG. 15)
# [2] = system: E0771 cancer cells; test: E0771 tumors in Rag2-/- versus wild type mice; assay type: in vivo, C57BL/6 mice; conditions: 11.6 μg intratumorally once/day for 5 days
# Description: The inventors therefore explored whether ELANE-mediated cancer cell killing could positively influence the immune cells in the tumor. Rag2^−/− mice in C57BL/6 background (no adaptive immunity) and wild type (wt) C57BL/6 mice were both ordered from the Jackson laboratory. E0771 cancer cells were injected into both mouse models. Once tumors reached ˜100 mm^3. ELANE (11.6 μg) or HAS (11.6 μg) were delivered intratumorally once/day for 5 days. Tumor volume was assessed by calipers. Kaplan-Meier curve was plotted and the logrank test (Mentel-Cox method) was used for mouse survival analysis. End point of survival is defined as tumor volume >1000 mm^3.
# Adaptive immune cells contribute to ELANE's therapeutic efficacy. Rag2-deficient (Rag2−/−) mice on the C57BL/6 background (no adaptive immunity) and wild type (wt) C57BL/6 mice were injected with E0771 cancer cells. Once tumors reached ˜100 mm^3. ELANE (11.6 μg) or HSA (11.6 μg) were delivered intra-tumorally once/day for 5 days. (FIG. 18A) Tumor volume was assessed by calipers. (FIG. 18B) Kaplan-Meier curve was plotted and the logrank test (Mentel-Cox method) was used for survival analysis. End point of survival is defined as tumor volume >1000 mm^3.
# [3] = system: MDA-MB-231 cells; test: Cancer cell killing, Calcein AM staining; assay type: cell-based, human
molecule,measurement,setting,value
B1,tumor growth,[1],attenuates tumor growth in many cancer models
same,efficacy in immune competent versus adaptive immunity deficient mice,[2],more efficacious than adaptive immunity deficient mice
same,cancer cell killing activity of purified protein,"[3]; increasing doses, 5h",highest cancer cell killing activity
same,"toxicity to cancer cells, ELANE versus PPE","[3]; various doses, 6 h",equally toxic to cancer cells
